Assay results taken from patent publication US8624002B2, “Prostaglandin E2 binding proteins and uses thereof” (AbbVie, Inc., priority 2008, dated 2014).
Residue numbers refer to the chain shown, from its start. Each block holds one molecule with its values, some of them ahead of it.

Experiments:
[1] = system: carrageenan-induced paw edema; experiment: Carrageenan-induced footpad edema model; format: in vivo, C57.BL/6 mice; conditions: 3 mg/kg, p.o.
Experimental: Carrageenan-Induced Footpad Edema is an acute rodent model of innate immune function. The in vivo efficacy of mouse anti-PGE2 antibody 2B5-8.0 is assessed in a carragenan-induced paw edema model. The induction of paw inflammation with carrageenan is performed similarly as previously described (Joseph P. Portanova, et al. J. Exp. Med. 184: 883-891 (1996)). Intradermal (ID) injection of an inflammatory agent causes a rapid influx of neutrophils and fluid edema which peaks at approximately 4 hours, followed by an influx of macrophages and monocytes which peaks at approximately 48 hours. C57.BL/6 mice (8-10-week-old, Jackson Laboratories, Bar Harbor, Me.) were injected ID in the rear footpad with 30 μL of either PBS (left) or λ-carrageenen (Sigma Aldrich, St. Louis, Mo.) in PBS (right) at a concentration of 5.0 mg/mL (150 μg/mouse). Rear footpad thickness was measured by Dyer spring caliper model #310-119 at baseline (time=0), and 4 hours post carrageenan challenge. Significant difference for paw thickness was determined by comparing mean paw swelling for each treatment group to vehicle in a Student's two-tailed t-test. Mice were given a dose titration of an anti-PGE2 antibody (2B5-8.0) intraperitonially (IP) 18 hours prior to carrageenan challenge, or Indomethacin, PO 2 hours prior to challenge. The endpoint measured was the difference in paw swelling (edema) between right and left paws 4 hours after treatment.

[2] = Pharmacokinetics of hu2B5.7 and hu2B5.4 in Sprague-Dawley rats; format: in vivo; conditions: male Sprague-Dawley rats, IV 4 mg/kg
Experimental: Pharmacokinetic parameters were calculated by non-compartmental analysis using WinNonlin.
MSD streptavidin plates (Meso Scale Discovery) were washed with phosphate buffered saline containing 0.05% Tween-20 (diluted from 10×PBS, Abbott Bioresearch Center, Media Room, Worcester, Mass. and Tween-20, Sigma, St. Louis, Mo.). Plates were blocked with 250 μL/well blocking solution (MSD Block, Meso Scale Discovery, diluted to 3% final concentration in PBS) for 1 hour, covered, with shaking (600 rpm) at room temperature. After washing, 70 μL of biotinylated PGE2 (Prostoglandin E2-biotinamide, Cayman Chemical, Ann Arbor, Mich., cat# 10006987, lot# 190831-191028; 0.01 ug/mL in assay buffer) was added to each well. The plates were covered and incubated with shaking (600 rpm) for 1 hour at room temperature.
Prior to analysis, rat serum samples were thawed on ice, mixed gently, and centrifuged at 14,000 rpm for 3 minutes at 4° C. in an eppendorf centrifuge. Standard curve and control samples were prepared in rat serum. Tecan Evo automated liquid handling station was used to dilute standard curve, high, medium, and low controls, and serum samples in assay buffer, keeping 1% final serum concentration constant. MSD plates were washed again and study samples, standard curve samples and blanks, as well as high, medium, and low controls were added (70 μL/well). The plates were covered, and incubated for 1 hour with shaking (600 rpm) at room temperature.
After incubation, the MSD plates were washed, and 70 μL sulfo-tagged goat anti-human IgG (Meso Scale Discovery; diluted to 1 ug/mL in assay buffer) was added to each well. The MSD plates were covered, and incubated with shaking (600 rpm) for 1 hour at room temperature, then the plates were washed and developed with 2× Read Buffer (Meso Scale Discovery). Chemilumeniscence was measured within ten minutes on the MSD Sector Imager 6000.
Standard curves were analyzed using four-parameter logistic fit and sample concentrations were calculated by XLfit4 software version 2.2.1 Build 16, ([…].). Pharmacokinetic parameters were calculated for each animal using Winonlin software version 5.0.1 (Pharsight Corporation, Mountain View, Calif.) by noncompartmental analysis.
Surgically altered jugular vein cannulated, JVC) male Sprague-Dawley Rats (approximately seven weeks old, weighing 240-390 grams) were purchased from Charles River Laboratories (Wilmington, Mass.). The animals were housed in rooms maintained at constant temperature and humidity under a 12 hour light/dark cycle, fed with normal rodent chow and were allowed food and water ad libitum. Hydration and clinical conditions of the animals were monitored daily.
0.2 mL blood samples were collected from the rats at various timepoints, allowed to clot for 30 minutes at room temperature, centrifuged for 3 minutes at 13,200 rpm, the serum transferred to eppendorf tubes and stored frozen at −80° C.

[3] = Biotin-PGE2 ELISA (PGE2-biotinamide binding to captured IgG)
[4] = system: PGE2 induced Ca++ influx in HEK293 Gα16 cells stably transfected with human EP4 receptor; experiment: EP4 bioassay: PGE2 induced Ca++ flux (FLIPR); format: cell-based; conditions: PGE2 25 pm; read-out: IC50 (pM) @ PGE2 25 pm Cellular Potency in EP4 assay
Experimental: The ability of anti-PGE2 antibody to inhibit cellular response of PGE2 in vitro was determined in a Ca^++ flux assay in HEK293 Gα16 cells (Abbott Bioresearch Center, Worcester, Mass.) stably transfected with human EP4 receptor. In brief, an expression plasmid encoding one of the four human PGE2 receptors, EP4, and an expression plasmid encoding Gα16, were co-transfected into human embryonic kidney cell line 293 cells (ATCC# CRL1573, Manassas, Va.). The stable clones co-expressing both human EP4 and Gα16 protein were selected using standard methods (Joseph Sambrook and David W. Russell. Molecular Cloning: A Laboratory Manual Publisher. Published by Cold Spring Harbor Laboratory Press, 2001) and used for the EP4 bioassay. The HEK293 Gα16 cells were plated in black/clear poly-D-lysine plates (Corning #3667, Corning, N.Y.) and incubated with a Ca^++-sensitive dye (Molecular Devices, Sunnyvale, Calif.) for 90 minutes. Stock PGE2 (in 200 proof ethanol) was diluted with FLIPR buffer [containing 1×HBSS (Invitrogen Carlsbad, Calif.), 20 mM HEPES (Invitrogen Carlsbad, Calif.), 0.1% BSA (Sigma, St. Louis, Mo.) and 2.5 mM Probenecid (Sigma, St. Louis, Mo.)]. Anti-PGE2 antibodies or isotype matched control antibodies were also pre-diluted in FLIPR buffer. 25 μl of PGE2 or pre-incubated PGE2/antibody mixture was added to the wells pre-plated with cells. The dose response of PGE2 was determined on a serial titration of PGE2 and using FLIPR1 or Tetra (Molecular Devices, Sunnyvale, Calif.) and EC50 was determined using GraphPad Prism 5 (GraphPad Software, La Jolla, Calif.). […] Ca^++ flux was monitored using FLIPR1 and data was analyzed using GraphPad Prism 5 (GraphPad Software, La Jolla, Calif.).

[5] = ^3H-PGE2 competition ELISA (prostaglandin selectivity); format: binding
Experimental: Alternatively, prostaglandin selectivity was determined using a ^3H-PGE2 competition ELISA. Plates were coated with 50 μL/well of 5 μg/ml of goat anti-human IgG (Fc) (Thermo Scientific # 31170, Hudson, N.H.) or goat anti-mouse IgG (Fc) (Thermo Scientific # 31125, Hudson, N.H.) in PBS and incubated overnight at 4° C. The following day plates were flicked and blotted dry. Plates were blocked with 200 μL/well of Superblock (Thermo Scientific # 37515, Hudson, N.H.), 1 hour at room temperature. Plates were flicked and blotted dry. Monoclonal antibodies were diluted to 0.04 μg/ml in PBST (Abbott Bioresearch Center, Worcester, Mass.)/10% Superblock and 50 μL of each was added to each well (2 ng/well) of the pre-blocked ELISA plate and incubated for 1 hour at room temperature. Wells were washed 3 times with PBS/0.1% Tween-20. ^3H-PGE2 (Perkin Elmer # NET-428, Waltham, Mass.) was diluted in PBST/10% Superblock to 6 nM (2× stock). Each prostaglandin (Cayman Chemicals, Ann Arbor, Mich.) was prepared in PBST+10% Superblock at various concentrations ranging from 2000 μM (2× stock) to 0.00004 μM (2×). Equal volumes of the ^3H-PGE2 solution and of each prostaglandin dilution were mixed. Fifty microliters of this mixture was then added to each well of the plate and incubated for 1 hour at room temperature. Wells were washed manually 6 times with PBST/10% Superblock and 50 μL of scintillation fluid (Perkin Elmer # 6013621, Waltham, Mass.) added to each well. Plates were read using a TopCount reader (Perkin Elmer, Waltham, Mass.) with a 5 minute count delay. IC50 number was determined using GraphPad Prism 5 (GraphPad Software, La Jolla, Calif.). The cross reactivity index was then calculated by IC50 of PGE2/IC50 of other prostaglandin(s)

[6] = Capillary zone electrophoresis; format: physicochemical; conditions: running buffer pH 5.5; compared with Hu2B5.2, Hu2B5.4, Hu2B5.6, Hu2B5.8
Excerpt: Capillary zone electrophoresis is a capillary electrophoresis method in which the capillary is filled with buffer and the separation mechanism is based on differences in electrophoretic mobility of the analyte through the buffer. The electrophoretic mobility of a molecule is related to the charge-to-size ratio. A Beckman-Coulter ProteomeLab PA 800 (Beckman Coulter, Fullerton, Calif.) was used for the CZE analysis. A neutral capillary (eCAP neutral, 56 cm total length, 50 μm I. D. Beckman-Coulter, P/N 477441, Fullerton, Calif.) was used. The method used a 30.2 cm capillary with a detection window 20.2 cm from the sample introduction inlet. The running buffer was 100 mM EACA (6-Aminocaproic acid, Sigma A7824-100 G, St. Louis, Mo.) with 0.1% MC (from 1% Methylcellulose solution, Convergent Bioscience, cat# 101876, Toronto, ON, Canada), pH 5.5.

Molecule: COc1ccc2c(c1)c(CC(=O)O)c(C)n2C(=O)c1ccc(Cl)cc1 [Indomethacin, reference compound]
- Δ Paw Swelling (mm) ([1]; 2 hours prior to challenge, 4 hours post challenge): 0.486 ± 0.03 mm
- % Inhibition ([1]; paw swelling 4 hours post challenge): 57 ± 3.5%

- EC50 [3]: 79 pM
- prostaglandin binding specificity in ^3H-PGE2 competition ELISA [5]: demonstrated specificity to PGE2
B1: Hu2B5.7: humanized 2B5-8.0; VH SEQ ID NO 72, VL SEQ ID NO 73 (antibody, V domains shown)
VH: EVQLVQSGAEVKKPGASVKVSCKASGYTFTKYWLGWVRQAPGQGLEWMGDIYPGYDYTHYNEKFKDRVTLTTDTSTSTAYMELRSLRSDDTAVYYCARSDGSSTYWGQGTLVTVSS
VL: DVLMTQTPLSLPVTPGEPASISCTSSQNIVHSNGNTYLEWYLQKPGQSPQLLIYKVSNRFSGVPDRFSGSGSGTDFTLKISRVEAEDVGVYYCFQVSHVPYTFGGGTKVEIKR
- AUC0-∞ [2]: 9900 ± 1800 µg·h/mL
- CL [2]: 9.84 ± 1.7 mL/day/kg
- MRT [2]: 16.8 ± 1.0 days
- T½ [2]: 12.4 days
- Vss [2]: 0.165 ± 0.0198 L/kg
- Vz [2]: 0.176 ± 0.0308 L/kg
- IC50 [4]: 78 pM
- migration in capillary zone electrophoresis [6]: migrated more basic

- EC50 [3]: 37 pM
B2: Hu2B5.5: humanized 2B5-8.0; VH SEQ ID NO 68, VL SEQ ID NO 69 (antibody, V domains shown)
VH: B1 VH
VL: B1 VL with L3V
- IC50 [4]: 47 pM
- migration in capillary zone electrophoresis [6]: migrated more basic
